The results in this text go back to the supplement of paper PMC10724198.

± gives the standard deviation of the averaged measurements.

The data set has as its system Saccharomyces cerevisiae. Nature of the data set: protein stability index of tFT-peptide fusion (C-terminal peptide) (PSI (0-1 scale)); higher = more stable (slower turnover). Particulars: temperature: 30 C. The protocol:
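MPS profiling in S. cerevisiae of the yeast C-terminome library: the last 12 aa of each annotated ORF are fused to the C-terminus of a sfGFP-mCherry timer, after a GGGS linker. Cells are FACS-sorted into 8 mCherry/sfGFP bins and deep-sequenced. PSI runs from 0 (unstable) to 1 (stable); wild type and das1Δ backgrounds, two technical replicates each.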

Setting [1] is: genetic background: das1 deletion.

On to SSSGTSSSHLEL [APL6 C-terminal 12 aa], for which the protein stability index came to 0.702 ± 0.0062 under setting [1] and 0.672 ± 0.028 (genetic background: wild type).
In the same order, the values of SSSLSLESFMKS [SNM1 C-terminal 12 aa] are 0.748 ± 0.036 and 0.725 ± 0.019.
With SSTVESTNINME [MRT4 C-terminal 12 aa], the protein stability index is, setting by setting: under setting [1], 0.6903 ± 0.0023; (genetic background: wild type) 0.721 ± 0.00096.
For SSVAFSKNLECV [YGR139W C-terminal 12 aa] the same measures were 0.7073 ± 0.0066 and 0.696 ± 0.038.
In the same order, the values of SSYFRIEGKKKK [CUE2 C-terminal 12 aa] are 0.68 ± 0.022 and 0.683 ± 0.024.
In the case of STSDFELDDLED [YPL264C C-terminal 12 aa], the protein stability index runs as follows: under setting [1], 0.6965 ± 0.0052; (genetic background: wild type) 0.729 ± 0.026.
Take STTKQQSQEAVA [YHL026C C-terminal 12 aa]: the protein stability index is, setting by setting: under setting [1], 0.704 ± 0.027; (genetic background: wild type) 0.689 ± 0.054.
For SVEEAFQLKSFD [LAA1 C-terminal 12 aa] the same measures were 0.713 ± 0.0014 and 0.715 ± 0.056.
In the same order, the values of “SVFCRNYPSFLL [YMR086C-A C-terminal 12 aa]” are 0.697 ± 0.011 and 0.7 ± 0.035.
On to SVLQRRQSTQNS [HAL1 C-terminal 12 aa], for which the protein stability index is, setting by setting: under setting [1], 0.719 ± 0.0076; (genetic background: wild type) 0.691 ± 0.06.
On to “SVSVQVKWLYSA [YER107W-A C-terminal 12 aa]”, for which the protein stability index under setting [1] was 0.657 ± 0.012 and the protein stability index (genetic background: wild type) amounted to 0.159 ± 0.017.
In the same order, the values of SVTSGSANFVFY [UTH1 C-terminal 12 aa] are 0.7081 ± 0.0034 and 0.7 ± 0.019.
As for SYKWLKRETSPL [FRA1 C-terminal 12 aa], the protein stability index was 0.712 ± 0.024 under setting [1] and 0.689 ± 0.022 (genetic background: wild type).
In the same order, the values of TAIVAVVALLLL [DAN4 C-terminal 12 aa] are 0.343 ± 0.0084 and 0.353 ± 0.0092.
In the same order, the values of TAPLIQRKNKKN [RPN8 C-terminal 12 aa] are 0.741 ± 0.037 and 0.355 ± 0.022.
In the same order, the values of TASGEDSHLLKQ [BRL1 C-terminal 12 aa] are 0.669 ± 0.029 and 0.689 ± 0.026.
As to TCISVFLEVHQV [YDL206W C-terminal 12 aa], the protein stability index is, setting by setting: under setting [1], 0.479 ± 0.017; (genetic background: wild type) 0.4633 ± 0.0046.
For TDIENRNFRYIY [THI73 C-terminal 12 aa] the same measures were 0.6944 ± 0.0043 and 0.702 ± 0.022.
For TDIEPSAKRQKK [RPF2 C-terminal 12 aa] the same measures were 0.776 ± 0.048 and 0.695 ± 0.087.
In the same order, the values of TDNGSVLPLNPS [BAS1 C-terminal 12 aa] are 0.696 ± 0.015 and 0.697 ± 0.028.
For the sequence TDTEAEDDESPE [SEC63 C-terminal 12 aa], the protein stability index is, setting by setting: under setting [1], 0.692 ± 0.025; (genetic background: wild type) 0.633 ± 0.013.
In the same order, the values of TDYTRIIKMQSS [SWD1 C-terminal 12 aa] are 0.701 ± 0.013 and 0.251 ± 0.0049.
For “TFCRLCSHIQYF [YAL059C-A C-terminal 12 aa]” the same measures were 0.7214 ± 0.006 and 0.694 ± 0.022.
In the same order, the values of TFKGLYAEANSI [YOR111W C-terminal 12 aa] are 0.739 ± 0.01 and 0.716 ± 0.031.
On to TFKPIYLWALDL [SPP382 C-terminal 12 aa], for which the protein stability index is, setting by setting: under setting [1], 0.6938 ± 0.0043; (genetic background: wild type) 0.6753 ± 0.0057.
For TGLLRGSQKTQD [RPL2A C-terminal 12 aa] the same measures were 0.7017 ± 0.0061 and 0.672 ± 0.0086.
In the same order, the values of TISPYIRVCVST [YPR099C C-terminal 12 aa] are 0.3891 ± 0.0037 and 0.424 ± 0.018.
In the same order, the values of TKCEEEIKNLSK [YME2 C-terminal 12 aa] are 0.698 ± 0.022 and 0.711 ± 0.036.
On to TKGGNAGTKAYN [RTC3 C-terminal 12 aa], for which the protein stability index was determined as 0.679 ± 0.011 under setting [1] and 0.666 ± 0.041 (genetic background: wild type).
For TKWWLHYYRKLR [SBE2 C-terminal 12 aa] the same measures were 0.7418 ± 0.005 and 0.701 ± 0.023.
For TLSMYPRRRFYH [GPG1 C-terminal 12 aa], the protein stability index reads like this: under setting [1], 0.709 ± 0.011; (genetic background: wild type) 0.608 ± 0.043.
For TPEDADEEEDDE [RPL22B C-terminal 12 aa] the same measures were 0.6921 ± 0.0011 and 0.655 ± 0.014.
For TPLLLGNKGKPQ [YBL094C C-terminal 12 aa] the same measures were 0.687 ± 0.019 and 0.696 ± 0.043.
TQEKLDSLLLMQ [LGE1 C-terminal 12 aa] had a protein stability index under setting [1] of 0.702 ± 0.011 and a protein stability index (genetic background: wild type) of 0.6982 ± 0.006.
As for TREPISYKLDIQ [ERO1 C-terminal 12 aa], the protein stability index is, setting by setting: under setting [1], 0.678 ± 0.044; (genetic background: wild type) 0.67 ± 0.024.
Turning to TRKWANAAKGMP [YLR407W C-terminal 12 aa], the protein stability index runs as follows: under setting [1], 0.6889 ± 0.0067; (genetic background: wild type) 0.727 ± 0.012.
For TRMNVSHYYIIT [YOL166C C-terminal 12 aa] the same measures were 0.6573 ± 0.0038 and 0.641 ± 0.019.
In the same order, the values of TRRVAARKGKLS [UTR5 C-terminal 12 aa] are 0.686 ± 0.0091 and 0.32 ± 0.014.
As for TSAFNKLHIVEE [YAK1 C-terminal 12 aa], the protein stability index was found to be 0.712 ± 0.024 under setting [1] and 0.67 ± 0.045 (genetic background: wild type).
TSDHLFVVFFFW [YDL034W C-terminal 12 aa]: the protein stability index reads like this: under setting [1], 0.327 ± 0.019; (genetic background: wild type) 0.319 ± 0.035.
For TSHEAVAAKKLI [SHC1 C-terminal 12 aa] the same measures were 0.673 ± 0.018 and 0.249 ± 0.011.
Take TSILEDVDGDDE [YOL050C C-terminal 12 aa]: the protein stability index runs as follows: under setting [1], 0.706 ± 0.041; (genetic background: wild type) 0.669 ± 0.026.
For TSPRNICTSLCV [SAL1 C-terminal 12 aa] the same measures were 0.66358 ± 0.00023 and 0.655 ± 0.038.
For TTDEEVKEKKKR [GLE2 C-terminal 12 aa], the protein stability index was 0.6893 ± 0.0049 under setting [1] and 0.692 ± 0.028 (genetic background: wild type).
For TTNANVNNSSLS [FKH1 C-terminal 12 aa] the same measures were 0.715 ± 0.021 and 0.6623 ± 0.0022.
For TVLKAAKKEGLN [MGR3 C-terminal 12 aa] the same measures were 0.672 ± 0.015 and 0.671 ± 0.044.
With TVNYLHRLLETD [ISN1 C-terminal 12 aa], the protein stability index reads like this: under setting [1], 0.73 ± 0.009; (genetic background: wild type) 0.721 ± 0.039.
Take TVPGDENKITKK [PDR12 C-terminal 12 aa]: the protein stability index stood at 0.711 ± 0.017 under setting [1] and 0.654 ± 0.064 (genetic background: wild type).
In the same order, the values of TVSDGGSIFECS [RAD28 C-terminal 12 aa] are 0.7127 ± 0.0051 and 0.708 ± 0.06.
For TYRLLLRLHAQD [FAR7 C-terminal 12 aa] the same measures were 0.68 ± 0.035 and 0.641 ± 0.019.
In the same order, the values of TYSYTIDHPVLT [NUP100 C-terminal 12 aa] are 0.659 ± 0.021 and 0.659 ± 0.034.
For the sequence VAASKASKKSKI [NSA1 C-terminal 12 aa], the protein stability index is 0.683 ± 0.035 under setting [1] and 0.677 ± 0.085 (genetic background: wild type).
In the same order, the values of VAFFKAVGATIM [YOR146W C-terminal 12 aa] are 0.625 ± 0.011 and 0.627 ± 0.054.
VAKAEKLAAEAN [ATP2 C-terminal 12 aa]: the protein stability index was 0.684 ± 0.03 under setting [1] and 0.705 ± 0.022 (genetic background: wild type).
Take VDALQIQYNRRP [SCD5 C-terminal 12 aa]: the protein stability index by setting is: under setting [1], 0.681 ± 0.013; (genetic background: wild type) 0.692 ± 0.033.
As for VDESWLPETYKK [IRC22 C-terminal 12 aa], the protein stability index under setting [1] was 0.7425 ± 0.0014 and the protein stability index (genetic background: wild type) worked out at 0.711 ± 0.022.
Take VDQLFEKASVLY [RPN6 C-terminal 12 aa]: the protein stability index is, setting by setting: under setting [1], 0.68 ± 0.017; (genetic background: wild type) 0.721 ± 0.03.
For VFISTVLLAIVW [YAL065C C-terminal 12 aa] the same measures were 0.196 ± 0.015 and 0.192 ± 0.0067.
In the same order, the values of VFPDVLFTFLFS [YEL010W C-terminal 12 aa] are 0.70228 ± 0.00029 and 0.713 ± 0.027.
In the same order, the values of VFPGNYVQLNKN [RVS167 C-terminal 12 aa] are 0.6933 ± 0.0022 and 0.679 ± 0.027.
On to VGFAVMALMDEH [YKE4 C-terminal 12 aa], for which the protein stability index runs as follows: under setting [1], 0.703 ± 0.052; (genetic background: wild type) 0.7046 ± 0.0017.
VHDDSRCYTHFY [BNI4 C-terminal 12 aa]: the protein stability index by setting is: under setting [1], 0.7313 ± 0.0033; (genetic background: wild type) 0.726 ± 0.047.
For the sequence VHKFGWSLSFSP [POR2 C-terminal 12 aa], the protein stability index reads like this: under setting [1], 0.701 ± 0.017; (genetic background: wild type) 0.681 ± 0.038.
For the sequence VKEIPEYSHLID [GCN5 C-terminal 12 aa], the protein stability index was determined as 0.718 ± 0.0055 under setting [1] and 0.697 ± 0.0012 (genetic background: wild type).
Regarding VKIATSILGKKL [PGS1 C-terminal 12 aa], the protein stability index turned out to be 0.68478 ± 0.00021 under setting [1] and 0.687 ± 0.025 (genetic background: wild type).
In the case of VKQMRKKKDKGD [MSB3 C-terminal 12 aa], the protein stability index worked out at 0.688 ± 0.0093 under setting [1] and 0.691 ± 0.042 (genetic background: wild type).
For the sequence VKSSMGPAFRLY [RPL1A C-terminal 12 aa], the protein stability index is 0.6853 ± 0.0045 under setting [1] and 0.712 ± 0.046 (genetic background: wild type).
